Biological target: rat GLP-1 receptor (rat) (UniProt P32301)
Experiment: cell-based or functional assay

Row | Potency (nM), cAMP accumulation in CHO-GLP-1R cells | Substance
1 | 0.85 nM | Exendin-4(1-30) (PEAPTD)2 mTf fusion protein (ligand)
2 | 0.33 nM | Exendin-4(1-31) (PEAPTD)2 mTf fusion protein (ligand)
3 | 1.3 nM | GLP-1(7-37,A8G,K34A) (PEAPTD)2 (SEQ ID NO: 5) mTf fusion protein (from UniProt P01275 98-128) (ligand)

Source: patent publication US20090239795A1
